Measurements: a protein production outcome set (Wang et al. 2014)

test: label from the status in PepcDB records

Sequence	protein production
MGPVPIKLALVIPNYNHSAAISQALSELAALNLPCYLIDDGSNDETRYLLQSLAEQHDWVTLLQHPYNRGKGAAVMTGLRSAYRDGFTHALQVDADGQHNLSDIPAMLAKAQAKPDALISGKPEYDKSVPKGRLYGRYLTHFWVWVETLSFDIQDSMCGFRVYPLAATERLFSKQALTERMDFDIEILVKLYWQGVEILFHPTKVIYPENGVSHFQCVADNVRISKLHTRLFFGMLKRLPQLLRRKQAAKSTSSAHTATHWSAMKERGSYWGIKLLVESYRFGGHWLCRAIMYPVICYFFLTGKVSREASRDFLRRVQHLEPQHPQLNQPVGWRDSLNHFIAFGNAALDRIDAWCDRIQLSQVDFPDRQVLADQLESGKGAVLLVSHLGNLELCRAISIHQRKVKVNVMVLTSHAENFNNVLKQLNPNSSLNLIQVTELNPATSMLLQQKIEDGELVVIAGDRTSSHAQGRVVYAPFMGQDAAFPQGPFILAGLLDCPVYLMFCLREQGRYRVHLERFAETLKGPRAGRMERLQQAVYRYSERLEHYARREPLQWFNFFDFWRDDNQVNRATSAHKTTAALPEQERTTDRTEHLLEHHHHHH	not failed
MGQIPPQPVRRVLPLMVVPGNGQKWRNRTETEEAMGDTYRDPVDHLRTTRPLAGESLIDVVHWPGYLLIVAGVVGGVGALAAFGTGHHAEGMTFGVVAIVVTVVGLAWLAFEHRRIRKIADRWYTEHPEVRRQRLAG	failed
MGQIQQPIQGYDSTSPCGDNRDPQPFDFNFIFAFQPIVNIKNGHIYAQEALVRGLKGEGAHSILSRIDENNRYSFDQKARDKALQSALSCNWDGAISINFMPNAVYYPEYCLSQTLSTCEKLGINPARLIFEWSEKEYLTEYDHIRHVISRYKHLNFKVAFDDFGGLYSNFNLLTAYHPDIIKLDRHYVVGIEHDKRRRAVVKAMVGLCRDLGIDFVVEGVETIEEFKVLQDLGVDLMQGFLLARPALMQMPQATMPP	failed
MGQMISEMRHGVRRPVWHDLAERFDEPRECLASFLALEAAEVLAGEKPANLIGIANRTRACGRNLYVLWKQWGAMVLGESGLAVRELSDRGDSLLLLLYRPEALEALLRRPSASAVLARAGYGAATGLDEVLTELSTRIDGDRFPHEIGVFLGYPLKDVAAFMGLVRIPFACQGPWKIFGDPRESLRLAEVFRCCRARMAERLNRCTSALDCLADGSPRPVVGFDEIESHSYGGKAMCIAVIGGMDRLEKHYREEAVRSGVELRMFSQSENNIAVKLKRFDALVIFTNKVSHRVKNEAMAVAKQNGIPVFMHHSCGVCTLRDCLSCLTATVAHVGESDRPDLGRRKNHS	failed
MGQVEVIDRRQSVFGDDIQLQKRSSSYEIISNGVFLMSTENGRSEREMVTLGAQHMKNAVHSVLIGGLGVGITADEAVHLNDHVQVHVVEIEPSVVEWQYRYLYPFSNQALEHERTAIIISDIQQWLRTNERTYDLICLDTDNGPDWMVHKQNASLYGKIGLELVRERVRVGGAVSFWSASASESFLHELETLFDRVYEHAVSLEHHHHHH	failed
MGRGRKHTDAAAEQRELAIKANIVDEPFSVSAIDRSIRKAEWVKTETDQILSGRCPETDGTWLGISTRGRVAFLVEAGTINRDRFNGAESRTLEFLESNESPEDFAKSSAADYIRNKNTAAFHLIVADIASNSMLYISKPRFSDYGIVYTEPVGPGVHTLSSAGLDSDVGYRDLRMRHSFCEMINRERLPPIRDIAEIMYDPVKAYESVLLSSIFFVDMKIGYEHYGTRITTALVVKRTKEVLFFERYREIFNDDWDDHDFAFTII	failed
MGRKMGISGKLYSFLYLRGFKVWVSYRTQTVLTVLGWVLPVFTYYFTGTALGNRLVNEVGVSNYTAFFTIGLAFQGYVSSVISTISQRLRNEQLYGTIEYYVISRTGTFGFLLYSALWGLTLNTINAIIILAVGFALNIHYNVNIVSAIVIIVLLILSTLGIGMIAGAVTMVTKQGNPISFFFNTFTNLLGGTVFPVTVLPLYVRYISYGIPLTWALEGLREAFLNGAPITDIAPFIIILTIFDIVLLPLGVFSYNHAFKKAREKGTLGEY	failed
MGRKPIKAGAIPRFRVRPQKSGVVYYYYDHGGKPRKETPLGRDYGLAIKRWAELEHAQITPAIAVTFRHVAERYRAEVIPTKAYNTQRMHHVYLNYLLQFFDDPPAPFESIKPVNIRQYLDWRPFKVSANREVALFSHLWNWARSKGITDLPNPCGGIRRNKERGRDVYIDDTTYRAVYQAADQTLRDAMDLAYLTGQRVSDVVSMDERHIVNGALEICQAKTGVKLAIAITGELAVLIKRIFDRKRGMKLRSTRLIVDEKGLGLNWKKLAYRFRKVRAAAGIAKEVFQFRDLRAKAATDKADLAGDIRQAQAQLGHTSVVMTEHYVRKRKGAKVTPTR	failed
MGRLVSLLPSATDLIFELGLGEQLLGVSHCCDHPGAASLPVLTRSIIGSDLPQAEIDRAVSEAVRAGRALYTVDGPLLDRLRPDLVVTQGVCEVCAVTPGTVAEAVRFLPGCLPAEQVLSLEGKTFAGILADLRALARAAGLEHHHHHH	failed
MGRPRVARLDRERIAEAALELVDRDGDFRMPDLARHLNVQVSSIYHHAKGRAAVVELVRHRVVREIDGSAFERLPWDEAFSEWARSYRAAFSRHPTAIRLLATETVRDPGSLSVYHSAAAGLRGAGFPDDHIMAVITAAENFLLGAALDAAAPEVMIEADSTTTDDALTRALAAAPRGPERAEQAFELGLAALLAGFHHLLQECGAVQR	not failed
MGRPRYLAYTRQIAMKSWRKAVVGTQATVGDAIAAIESGSIQIALVLDDQNRLLGVVTDGDVRRGLLRGIPLTGLATDIMNRVPVSAPATLSRDDRLHLMRQKSIKQLPLVDEGGHLVVVETLDELLEPRHYANPVLIMAGGLGERLGALTRDVPKPMLNVGGRPLLETIVRNVVQQGFRNIYISVNYKAETIKDYFADGAAFGANIQYVHETERLGTAGALGLFPAPPDLPMIVTNGDILTTINYGALLDFHNGTPAEATMAVREHKVHVPYGVVSTSDGFLQAIREKPTESWFVSAGIYVIGSSVFGHVAPGVSIDMPTVLERVIAGKGRVAVYPIREYWLDIGRLEDFEQAHAEFHEVFPLEHHHHHH	not failed
MGRRPSSSHKVSSGKISARPSLHCERGGFMRKTFLAPLTVALCALAAAQTPPPAPIDRPLPAPEPPATATVTRNEPTPQQFTPDKLARLKVPAGFKVSVMATELGNARMLHVMPDGGIYLSRRQNGDIWYLKDVNGDGTIDATERRRVADQLKLVHGIDTRQGKLYAVGEKTIWVMDIARDGTLSVPRVFADNFPDAGQHPARQLGWGPDGYLYASFGATNNDAPTQNPEEATILRIRPDGQVREVYARGLRHTIGFGWHPVTKTFYGMDQGSDWHGDNIPPEELNVIKRGKNYGWPFCYGAKNPDPFVNVANIPGKITKAEYCATTEPSTLNYTAHAAAIALKFYTGTQFPAEFRNDAFVTFRGSWNRNEPSGYEVARVVFDAQNKPEKIEPFVTGFVYQEGGEWKQFGRVAGLAVYTDGSLLFTDDQSGVIYRVQYVGGQK	failed
MGRTSKDKRDVYYRLAKENGWRARSAFKLLQLDKEFQLFQGVTRAVDLCAAPGSWSQVLSQKIGGQGSGHVVAVDLQAMAPLPGVVQIQGDITQLSTAKEIIQHFKGCPADLVVCDGAPDVTGLHDVDEYMQAQLLLAALNIATHVLKPGGCFVAKIFRGRDVTLLYSQLQVFFSSVLCAKPRSSRNSSIEAFAVCQGYDPPEGFIPDLSKPLLDHSYDPDFNQLDGPTRIIVPFVTCGDLSSYDSDRSYPLDLEGGSEYKYTPPTQPPISPPYQEACTLKRKGQLAKEIRPQDCPISRVDTFPQPLAAPQCHTLLAPEMEDNEMSCSP	failed
MGRVIVLGEVLLVGLRFVFVLLIYIFVWHVLRLMYLELGLAPAQSSRKRPVLVVLDAKNGGAKRGESYPLGENISIGRDNHNDIIINDSHVSARHAVITRQGREWKILDLDSTNGTYVNGLRLTGPHSLRPGDKISIGGVTFKVGWEDASRSPFPYRTGAAR	failed
MGSFDDVIGNHQADTAMIVQISADRKEINLVSIPRDSLVDVPQCETSKGTIPAQYNVMFNSIFAGAYKTGGDLSSAASCTLNAVNSLTGLNIQNFIVVDFAGLVKMIDSVGGVDLCIPQNVNDPYTGLNLDKGMHHLDGVAATQYARIRHGIGDGSDTSRTTRQQYLIKQLMSEALSKNLFTDTAQLYQLAKSALKSLNISQGMADTAALAGLAMSLKNFTMTNLQTQTVPVVPAPSDPNRSVWTDEADNLWEKMRAGKPIFDTADSNSGGSSDTSSDNSASSDDSGTTDSNQSDTTAETPDPVTGLITKSDGTLVDPSTGGTVDPDDGSIHDATTGQYIGLADRYLNATVCAVPAKNLEHHHHHH	not failed
